In patent US20170226225A1 (Merck Sharp & Dohme, published 2017):

Legend:
[1] = molecular target: T1, human coagulation Factor XI (FXI) zymogen (human, UniProt P03951 19-625); experiment: cell-based or functional assay
human FXIa = human FXIa (human, UniProt P03951 19-625); experiment: SPR (ProteOn XPR36), antibody captured by anti-human IgG, FXIa as analyte; mean ± SD, N=3
cynomolgus monkey FXIa = cynomolgus monkey FXIa (cynomolgus monkey, UniProt A0A2K5VVW4 19-624); experiment: as above
[2] = molecular target: T2, rhesus monkey FXI zymogen (rhesus monkey, UniProt F6PJ95 19-624); experiment: cell-based or functional assay
[3] = molecular target: T3, cynomolgus monkey FXI zymogen (cynomolgus monkey, UniProt A0A2K5VVW4 19-624); experiment: cell-based or functional assay
[4] = molecular target: T1, human coagulation Factor XI (FXI) …; experiment: cell-based or functional assay; remark: listed apart in the source
[5] = molecular target: T2, rhesus monkey FXI zymogen; experiment: SPR (ProteOn XPR36), antibody captured by anti-human IgG, FXI as analyte; mean ± SD, N=3
Method: (§1) 1 M ethanolamine HCl is then injected across all six vertical flow channels to neutralize remaining reactive surface amines. The anti-FXI antibodies are then injected at 25 μL/minutes for 60 seconds, each into a distinct vertical flow channel coated with capture antibody (L2, L3, L4, L5, or L6), at a concentration of 5 μg/mL in 10 mM sodium acetate, pH 5.0, to achieve saturating capture levels of approximately 80 RU; vertical flow channel L1 is injected with 10 mM sodium acetate, pH 5.0 (buffer alone), as a reference control. After capture of anti-FXI antibodies, running buffer (1×HBS-N, 5 mM CaCl₂, 0.005% P20, pH 7.4) is injected across all horizontal flow channels (A1-A6) for 5 minutes and allowed to dissociate for 20 minutes at 25 μL/minutes to remove any non-specifically bound anti-FXI antibodies from the chip surface. To measure on-rate (kₐ) of human FXI to captured anti-FXI antibodies, a 6-point titration of human FXI zymogen (0, 0.25, 0.5, 1.0, 2.0, 4.0 nM diluted in running buffer) is subsequently injected horizontally across all six vertical flow channels for 8 minutes; the bound zymogen is then allowed to dissociate for 60 minutes in running buffer at 25 μL/min to measure off-rate (kd). Binding kinetics and affinity (KD) may be determined using instrument-specific software (Bio-Rad).
(§2) A GLC low-density sensor chip is washed across all vertical and horizontal flow channels with 0.5% sodium dodecyl-sulfate, 50 mM sodium hydroxide, and 100 mM hydrochloric acid for 60 seconds at 30 μL/second flow rate.

[6] = molecular target: T3, cynomolgus monkey FXI zymogen; experiment: as above
Method: as §1, §2

[7] = molecular target: T1, human coagulation Factor XI (FXI) …; experiment: as above
Method: as §1, §2

Binder	FXIa Activation Inhibition (EC50, nM); autoactivation of FXI on dextran sulfate, Z-GPR-AFC cleavage [1] [nM]	Kd (human FXIa) [pM]	Kd (cynomolgus monkey FXIa) [pM]	aPTT in rhesus monkey plasma: concentration that prolongs clotting time by 50% (1.5x) [2] [nM]	aPTT in cynomolgus monkey plasma: concentration that prolongs clotting time by 50% (1.5x) [3] [nM]	aPTT in human plasma: concentration that prolongs clotting time by 50% (1.5x) [4] [nM]	Kd [5] [pM]	Kd [6] [pM]	Kd [7] [pM]
αFXI-13654p-IgG4 (S228P) (K-)/kappa (antibody, V domains shown, Human IgG4 S228P heavy chain lacking the C-terminal lysine; kappa light chain) VH: EVQLVESGGGLVKPGGSLRLSCAASGFTFSSYSMNWVRQAPGKGLEWVSSISSSSSYIYYADSVKGRFTISRDNAKNSLYLQMNSLRAEDTAVYYCARSYYDYDQGYGMDVWGQGTTVTVSS VL: DIQMTQSPSSVSASVGDRVTITCRASQGISSWLAWYQQKPGKAPKLLIYAASSLQSGVPSRFSGSGSGTDFTLTISSLQPEDFATYYCQQVNSYPITFGGGTKVEIKR	10	9	2	25	21.6	16.8	26.6	12.9	26.5
αFXI-13716-IgG4 (S228P) Q1E M103L (K-)/kappa (antibody, V domains shown, Human IgG4 S228P heavy chain with Q1E and M103L, lacking the C-terminal lysine; kappa light chain) VH: EVQLVQSGAEVKKPGASVKVSCKASGYTFTSYSMHWVRQAPGQGLEWMGIINPSGGSTSYAQKFQGRVTMTRDTSTSTVYMELSSLRSEDTAVYYCARGAYLLELYYYYGMDVWGQGTTVTVSS VL: EIVMTQSPATLSVSPGERATLSCRASQSVSSNLAWYQQKPGQAPRLLIYGASTRATGIPARFSGSGSGTEFTLTISSLQSEDFAVYYCQQFNDWPLTFGGGTKVEIKR	11	1.1	3.3	17.4	21.1	20.9	2	6.9	2.5
αFXI-13716p-IgG4 (S228P) (K-)/kappa (antibody, V domains shown, Human IgG4 S228P heavy chain lacking the C-terminal lysine; kappa light chain; also called α13716p-IgG4 (S228P) (K-)/kappa) VH: QVQLVQSGAEVKKPGASVKVSCKASGYTFTSYSMHWVRQAPGQGLEWMGIINPSGGSTSYAQKFQGRVTMTRDTSTSTVYMELSSLRSEDTAVYYCARGAYLMELYYYYGMDVWGQGTTVTVSS VL: EIVMTQSPATLSVSPGERATLSCRASQSVSSNLAWYQQKPGQAPRLLIYGASTRATGIPARFSGSGSGTEFTLTISSLQSEDFAVYYCQQFNDWPLTFGGGTKVEIKR	4	1.3	3.7	19.4	22.5	21.6	3.1	7.5	3.5
